Where a chain is given by its changes, count along the chain named. Several values for one entry are separate records, joined by “and”; a condition that tells them apart may be missing. Identical values can stand only once.

T1: IL-17F (UniProt Q96PD4 31-163, limits assumed)
T1 sequence (looked up): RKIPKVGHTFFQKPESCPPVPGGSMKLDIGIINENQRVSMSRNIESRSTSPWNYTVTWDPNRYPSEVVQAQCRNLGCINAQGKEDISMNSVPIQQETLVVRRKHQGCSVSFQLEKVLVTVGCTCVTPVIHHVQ

T2: IL-17C (UniProt Q9P0M4 19-197, limits assumed)
T2 sequence (looked up): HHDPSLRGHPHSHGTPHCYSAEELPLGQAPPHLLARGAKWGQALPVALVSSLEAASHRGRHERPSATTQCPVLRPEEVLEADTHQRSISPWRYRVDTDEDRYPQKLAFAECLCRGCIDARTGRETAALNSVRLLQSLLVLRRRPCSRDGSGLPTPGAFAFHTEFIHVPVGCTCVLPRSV

T3: murine IL-17A (murine, UniProt Q62386 26-158, limits assumed)
T3 sequence (looked up): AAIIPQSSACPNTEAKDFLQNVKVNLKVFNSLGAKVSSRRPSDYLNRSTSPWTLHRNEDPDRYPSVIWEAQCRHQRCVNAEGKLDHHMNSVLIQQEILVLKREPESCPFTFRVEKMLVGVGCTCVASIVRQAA

B1: Clone 1.8 (VHH)
VHH: QVQLVESGGGLVQPGGSLRLSCAASGFTFSSYGMYWVRQAPGKGLEWVAKIEQDGSEKYYVDSVKGRFTISRDNAKNSLFLQMNSLRAEDTAVYYCAKGEILPLYFDYWGQGTLVTVSS
notes: Human single VH domain
B2: VH 1.20.1 (clone 1.20 expressed from phagemid vector: with linker residues and His tag) (VHH)
VHH: B1 VHH with Q1E, K58E, V61A, N77K, F80Y
notes: Human single VH domain
B3: Clone 1.12 (VHH)
VHH: B1 VHH with K58E, F80Y
notes: Human single VH domain
B4: Clone 1.13 (VHH)
VHH: B1 VHH with Q1E, K50S, F80Y
notes: Human single VH domain
B5: VH 1.19.1 (clone 1.19 expressed from phagemid vector: with linker residues and His tag) (VHH)
VHH: B1 VHH with Q1E, A24T, K50E, E52K, F80Y
notes: Human single VH domain
B6: VH 1.21.1 (clone 1.21 expressed from phagemid vector: with linker residues and His tag) (VHH)
VHH: B1 VHH with Q1E, Q13L, G33S, K50E, E52K, K58Q, F80Y
notes: Human single VH domain
B7: Clone 1.9 (VHH)
VHH: B1 VHH with K50E, E52K, F80Y
notes: Human single VH domain
B8: Clone 1.22 (VHH)
VHH: B1 VHH with Q1E, Q13R, K58E, N77K, F80Y
notes: Human single VH domain
B9: VH 1.17.1 (clone 1.17 expressed from phagemid vector: with linker residues and His tag) (VHH)
VHH: EVQLVESGGGLVQPGGSLRLSCAASGFTFSSYSMYWVRQAPGKGLEWVAEIKPTGSVQYYVSDVKGRFTISRDNAKNSLYLQMNSLRAEDTAVYYCAKGEILPLYFDYWGQGTLVTVSS
notes: Human single VH domain
B10: VH 1.18.1 (clone 1.18 expressed from phagemid vector: with linker residues and His tag) (VHH)
VHH: B9 VHH with P53Q, T54D, S62G, D63G
notes: Human single VH domain
B11: Clone 1.14 (VHH)
VHH: B1 VHH with Q1E, P14R, G33R, K50S, K58E, N77K
notes: Human single VH domain
B12: VH 1.16.1 (clone 1.16 expressed from phagemid vector: with linker residues and His tag) (VHH)
VHH: B9 VHH with P53Q, T54D, V57E, S62D, D63S, S85G
notes: Human single VH domain
B13: Clone 1.11 (VHH)
VHH: B1 VHH with Q1E, G33Q, K50S, E52K, K58E
notes: Human single VH domain
B14: VH 1.3.1 (clone 1.3 expressed from phagemid vector: with linker residues and His tag) (VHH)
VHH: B9 VHH with P53Q, T54D, S62D, D63S
notes: Human single VH domain; also called Clone 1.3 prep 1; Clone 1.3 prep 2
B15: Clone 3.11 (VHH)
VHH: QVQLVQSGAEVKKPGASVKVSCKASGYNFDAYHINWVRQAPGQGLEWMGSIKPNSGATKYAQKFQGRVTITRDTSISTAYMELSRLRSDDTAVYYCASLDRDTWYPHSYFGWFDSWGQGTLVTVSS
notes: Human single VH domain
B16: Clone 3.13 (VHH)
VHH: B15 VHH with F110A
notes: Human single VH domain
B17: Clone 3.9 (VHH)
VHH: B15 VHH with L99M, T103Y, W104Y, Y105D, P106T, H107S, S108G
notes: Human single VH domain
B18: Clone 3.3 (VHH)
VHH: QVQLVQSGAEVKKPGASVKVSCAASGYTFTDYYLHWVRQAPGQGLEWMGWINPNTGTTKYAREFEGRVTMTRDTSISTAYMELSRLRSDDTAVYYCASMDRDYYDTSGYFGWFDSWGQGTLVTVSS
notes: Human single VH domain
B19: Clone 3.6 (VHH)
VHH: B18 VHH with M99L, Y103W, Y104R, D105S, T106P, S107N, G108D, F110Y
notes: Human single VH domain
B20: Clone 3.5 (VHH)
VHH: B18 VHH with M99L, Y103W, Y104R, D105S, T106P, S107N, G108D
notes: Human single VH domain
B21: VH 1.2.2 (+HIS) (VHH)
VHH: B9 VHH with P53Q, T54D
notes: also called 1.2.2 (clone 1.2 with C terminal extension and His tag)
B22: VH 1.2.3 (clone 1.2 with C terminal extension) (VHH)
VHH: B9 VHH with P53Q, T54D
notes: Human single VH domain

The target in the first experiment is T4, recombinant human IL-17A (human, UniProt Q16552 24-155). As to the kind of experiment: cell-based or functional assay.
T4 sequence (Q16552 24-155): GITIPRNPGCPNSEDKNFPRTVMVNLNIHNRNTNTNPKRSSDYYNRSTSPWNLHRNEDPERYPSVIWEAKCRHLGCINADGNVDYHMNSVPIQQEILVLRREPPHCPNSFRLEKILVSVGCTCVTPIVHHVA
Regarding B1, the “Cell assay IC50 (nM), IL-17A-induced IL6 release from HT1080” value (shortened to “Cell assay IC50 (nM)”) came to 1.2 nM.

On to B2, for which the “Cell assay IC50 (nM)” value stood at 2.03 nM.

With B3, the “Cell assay IC50 (nM)” value stood at 1.4 nM.

Take B4: the “Cell assay IC50 (nM)” value was determined as 1.2 nM.

Regarding B5, the “Cell assay IC50 (nM)” value was determined as 1.2 nM.

Regarding B6, the “Cell assay IC50 (nM)” value was 2.05 nM.

In the case of B7, the “Cell assay IC50 (nM)” value was found to be 2.4 nM.

For B8, the “Cell assay IC50 (nM)” value came out at 3.25 nM.

Consider B9, for which the “Cell assay IC50 (nM)” value is 1.91 nM.

Consider B10, for which the “Cell assay IC50 (nM)” value worked out at 1.04 nM.

Turning to B11, the “Cell assay IC50 (nM)” value came to 2.9 nM.

As to B12, the “Cell assay IC50 (nM)” value came to 1.4 nM.

As for B13, the “Cell assay IC50 (nM)” value came out at 1.5 nM.

Another experiment has as its target T1, IL-17F. Kind of experiment: specificity ELISA on coated antigen, VH concentration not given.
B2: the binding result is recorded as “no binding”.

In the case of B14, the binding result is reported as “no binding”.

Consider B5, for which the binding result is “no binding”.

Regarding B12, the binding result is reported as “no binding”.

Another experiment concerns the target T5, recombinant IL-17RA-Fc (UniProt Q96F46 33-320).
T5 construct: Bought reagent; also called R & D systems cat #177-IR-100; receptor; not shown: Fc part of the bought fusion, not described
The description is as above.
Regarding B2, the binding result was “no binding”.

As to B14, the binding result was “no binding”.

Take B5: the binding result is “no binding”.

With B12, the binding result is reported as “no binding”.

For a further experiment, the target named is T2, IL-17C. Described as above.
With B2, the binding result is reported as “no binding”.

As to B14, the binding result is recorded as “no binding”.

Turning to B5, the binding result is given as “no binding”.

Consider B12, for which the binding result was “no binding”.

The target of the next experiment is T3, murine IL-17A. The experiment is described as above.
As to B2, the binding result was “binds”.

On to B14, for which the binding result is listed as “binds”.

On to B5, for which the binding result is listed as “binds”.

The target in a further experiment is T4, recombinant human IL-17A. Kind of experiment: cell-based or functional assay. This is another data set of the same source.
Consider B15, for which the “Cell assay IC50 (nM)” value amounted to 17 nM.

On to B16, for which the “Cell assay IC50 (nM)” value was found to be 5 nM.

B17: the “Cell assay IC50 (nM)” value was 182 nM.

Take B18: the “Cell assay IC50 (nM)” value was found to be 106 nM.

For the molecule B19, the “Cell assay IC50 (nM)” value was found to be 28 nM.

Turning to B20, the “Cell assay IC50 (nM)” value was found to be 26 nM.

The target in a further experiment is T4, recombinant human IL-17A. Kind of experiment: SPR (BIAcore T200), IL-17A coupled to CM5 chip, single-cycle kinetics. On the technique in general: SPR reads the build-up and loss of mass on a sensor chip optically.
One may read the Kd as the free concentration of one partner at which half of the binding sites on the other are occupied at equilibrium, for simple one-to-one binding. As usually defined, the koff is a measure of how fast the partners let go of each other. In general, kon refers to the rate constant with which the complex forms. As for B15, the Kd amounted to 0.44 nM, the koff was 0.000237 s⁻¹ and the kon is 538000 M⁻¹ s⁻¹.

B16: the equilibrium dissociation constant (Kd) is 0.197 nM, the koff came to 0.000201 s⁻¹ and the kon was found to be 1.02e+06 M⁻¹ s⁻¹.

B17: the Kd came out at 21 nM, the koff came to 0.00201 s⁻¹ and the kon was 96400 M⁻¹ s⁻¹.

B18: the dissociation constant (Kd) stood at 29 nM, the koff was determined as 0.00285 s⁻¹ and the kon was found to be 99800 M⁻¹ s⁻¹.

Consider B19, for which the Kd was determined as 0.838 nM, the koff came to 0.00048 s⁻¹ and the kon amounted to 573000 M⁻¹ s⁻¹.

Turning to B20, the Kd worked out at 2.2 nM, the koff is 0.000619 s⁻¹ and the kon is 281000 M⁻¹ s⁻¹.

For a further experiment, the target named is T4, recombinant human IL-17A. Kind of experiment: competition ELISA, IL-17A binding to coated IL-17RA-Fc.
What is called IC50 is the concentration that gives 50% inhibition. Take B15: the IC50 was found to be 8 nM.

With B16, the IC50 turned out to be 2 nM.

Turning to B17, the IC50 came to 43 nM.

Take B18: the 50% inhibitory concentration (IC50) turned out to be 271 nM.

Take B19: the IC50 was found to be 3 nM.

As to B20, the concentration for half-maximal inhibition (IC50) is 4 nM.

A further experiment concerns the target T4, recombinant human IL-17A. As to the kind of experiment: BIAcore single-cycle kinetics on immobilised IL-17A, 1:1 binding fit.
Turning to B21, the equilibrium dissociation constant (Kd) stood at 0.55 nM, the koff was determined as 0.000485 s⁻¹ and the kon was 874000 M⁻¹ s⁻¹.

Consider B22, for which the Kd is 0.62 nM, the koff was 0.000465 s⁻¹ and the association rate constant (kon) turned out to be 748000 M⁻¹ s⁻¹.

For another experiment, the target named is T4, recombinant human IL-17A. Kind of experiment: SPR (BIAcore T200), IL-17A coupled to CM5 chip, single-cycle kinetics. The source holds these as a separate data set.
On to B1, for which the dissociation constant (Kd) amounted to 0.616 nM, the koff was determined as 0.000429 s⁻¹ and the kon was 697000 M⁻¹ s⁻¹.

B2: the Kd was 0.244 nM, the koff was 0.000208 s⁻¹ and the kon was determined as 851000 M⁻¹ s⁻¹.

Regarding B3, the dissociation constant Kd stood at 0.724 nM, the koff turned out to be 0.00053 s⁻¹ and the kon was 732000 M⁻¹ s⁻¹.

B4: the Kd turned out to be 0.84 nM, the koff came to 0.000515 s⁻¹ and the kon amounted to 614000 M⁻¹ s⁻¹.

For B14, the Kd is 0.627 nM and 0.23 nM; the koff is 0.000501 s⁻¹ and 0.000222 s⁻¹; the kon is 799000 M⁻¹ s⁻¹ and 964000 M⁻¹ s⁻¹.

Regarding B5, the Kd was 0.215 nM, the koff was determined as 0.000153 s⁻¹ and the on-rate (kon) came to 714000 M⁻¹ s⁻¹.

For the molecule B6, the Kd was 0.259 nM, the koff came out at 0.000205 s⁻¹ and the kon turned out to be 792000 M⁻¹ s⁻¹.

B7: the dissociation constant (Kd) worked out at 0.529 nM, the koff came to 0.000464 s⁻¹ and the kon is 877000 M⁻¹ s⁻¹.

With B8, the dissociation constant (Kd) stood at 0.223 nM, the koff came out at 0.000126 s⁻¹ and the kon stood at 565000 M⁻¹ s⁻¹.

As to B9, the Kd was 0.5 nM, the koff is 0.000462 s⁻¹ and the kon came out at 923000 M⁻¹ s⁻¹.

Take B10: the Kd was 0.366 nM, the koff was determined as 0.000479 s⁻¹ and the kon amounted to 1.31e+06 M⁻¹ s⁻¹.

Consider B11, for which the Kd came out at 0.913 nM, the koff came out at 0.000688 s⁻¹ and the kon was determined as 753000 M⁻¹ s⁻¹.

With B12, the Kd worked out at 0.216 nM, the dissociation rate constant (koff) was found to be 0.000213 s⁻¹ and the kon was 986000 M⁻¹ s⁻¹.

With B13, the Kd is 0.845 nM, the off-rate constant (koff) worked out at 0.000521 s⁻¹ and the kon worked out at 617000 M⁻¹ s⁻¹.

For the origin of these results see US20200347127A1 (CRESCENDO BIOLOGICS, published 2020).
